Experiment [1] concerns the target T1, human C5a receptor (human, UniProt P21730 1-350).
T1 construct: On human neutrophils, L1.2/hC5aR transfectants or neutrophils of hC5aR knock-in mice; also called hC5aR; C5aR1
T1 chain: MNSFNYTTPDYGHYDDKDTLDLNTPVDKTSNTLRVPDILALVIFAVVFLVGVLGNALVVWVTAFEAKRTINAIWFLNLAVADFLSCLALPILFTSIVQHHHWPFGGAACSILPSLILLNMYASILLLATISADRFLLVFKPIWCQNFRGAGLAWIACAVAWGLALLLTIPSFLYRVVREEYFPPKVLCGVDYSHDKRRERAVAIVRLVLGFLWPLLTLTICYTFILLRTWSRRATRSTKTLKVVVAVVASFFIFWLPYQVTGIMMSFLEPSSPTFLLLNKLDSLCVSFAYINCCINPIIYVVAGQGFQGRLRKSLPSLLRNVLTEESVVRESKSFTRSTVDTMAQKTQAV
The experiment in a line: PK/PD model (NONMEM) fitted to serum concentration and receptor occupancy in hC5aR transgenic mice, pharmacology study column. The source says:
NONMEM VI (non-linear mixed effects modelling software) with first order conditional estimation (FOCE) was used for modelling, and S-PLUS® 8.0 (Insigthful) was used for graphics and data handling. Evaluation of—and discrimination between—intermediate models was based on objective function values and standard graphical evaluation methods. In terms of objective function value, changes in this value were assumed to be chi-squared distributed (for nested models), and criteria for expanding the model were defined and used accordingly.
Toxicokinetics from the toxicology study in transgenic mice and PK/PD data from the pharmacology study was integrated to assess the relationship between pharmacokinetics and occupancy. […] This is consistent with other studies, observing higher clearance for high doses, due to saturation of the FcRN receptor (Hansen and Balthasar, 2002).

Experiment [2] concerns the target T2, chimeric receptor 2. mHHH (mouse; human, UniProt P30993 1-39).
T2 construct: range 1-39; Transiently expressed on mouse L1.2 cells
T2 sequence: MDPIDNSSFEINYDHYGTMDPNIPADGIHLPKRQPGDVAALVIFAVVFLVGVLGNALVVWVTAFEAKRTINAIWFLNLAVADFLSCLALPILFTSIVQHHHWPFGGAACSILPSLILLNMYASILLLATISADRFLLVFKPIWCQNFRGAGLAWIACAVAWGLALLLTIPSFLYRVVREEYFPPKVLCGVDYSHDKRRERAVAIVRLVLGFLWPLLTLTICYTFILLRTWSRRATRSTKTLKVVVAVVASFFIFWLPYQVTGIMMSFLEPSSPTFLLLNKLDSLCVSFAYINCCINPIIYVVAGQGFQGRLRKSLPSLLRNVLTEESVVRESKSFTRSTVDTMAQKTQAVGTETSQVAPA
Description: flow cytometry on transiently transfected L1.2 cells. On the procedure:
A series of chimeric receptors comprising segments of mouse and human C5aR were constructed to identify the region of the C5a receptor that the antibodies bound. […] Each recombinant vector (5 μg diluted in DMEM) encoding a different chimeric receptor was transfected into 5×10⁵ mouse L1.2 cells using Lipofectamine 2000 (Invitrogen). Cells were grown in DMEM or RPMI (Invitrogen) plus 10% foetal bovine serum (Hyclone). After 24 hours or 48 hours, cells were harvested by centrifugation at 1,500 rpm for 5 min and resuspended in FACS buffer (phosphate buffered saline plus 2% bovine serum albumin). For staining with hAb-Q, 0.5×10⁵ transfected cells were incubated with 5 or 10 μg/ml antibody in a volume of 50 μl per well at 4° C. for 20 minutes. Cells were pelleted as above and rinsed 3 times with 150 μl FACS buffer before addition of 50 μl FITC-conjugated anti-human IgG diluted 1:200 or 1:300 (Sigma, F1641). This mix was incubated for 20 min at 4° C. before cells were pelleted, washed with FACS buffer 3 times and finally resuspended in 150-200 μl FACS buffer. Samples were analysed on a FACS Calibur (BD Biosciences).
To confirm that the humanised antibody hAb-Q, which was derived from mouse mAb 7F3 by CDR grafting, and therefore should contain the same antigen-binding site, had the same staining pattern as 7F3, transiently transfected cells expressing the different chimeric human/mouse C5aR were stained with hAb-Q and analysed by flow cytometry. The pattern of staining by hAb-Q was identical to that observed with 7F3. There was no staining by the secondary antibody (anti-hIgG-FITC) alone.
(In general: A flow cytometer gives signals particle by particle.)

In experiment [3] the target is T1, human C5a receptor. Description: flow cytometry of bound hAb-Q (anti-hIgG-FITC) on human neutrophils, post-chemotaxis lower chamber. On the procedure: The FACSCalibur flow cytometer was set up with compensation parameters established for channel FL-1. Samples were acquired to exclude dead cells and debris. Neutrophils were identified based on FSC and SSC. The level of bound hAb-Q (anti-hIgG-FITC) or free C5aR (hAb-Q-FITC) was determined by determining the FITC (FL-1) mean fluorescence intensity (MFI) of the neutrophils in a sample.
Four experiments were carried out. Briefly, purified neutrophils isolated from the venous blood of a healthy volunteer were preincubated for 10 min with hAb-Q at concentrations ranging from 0.001 to 100 μg/ml. A small aliquot of this mix was taken to determine the amount of antibody bound receptor (% receptor occupancy) and the remainder was placed in the upper chamber of a transwell plate. C5a (10 nM) was placed in the lower chamber. After 30 min incubation, the number of cells that had migrated into the lower chamber was determined using FACS. The amount of bound antibody on the neutrophils in both the lower and upper chambers at the end of migration was also determined, using FITC-labelled anti-hIgG and flow cytometry. The level of free receptor (no bound antibody) was determined in one experiment by incubating the neutrophils with FITC-labelled hAb-Q before and after migration.

B1: humanized anti-C5aR antibody hAb-Q (antibody, human IgG4 S228P, kappa)
light: DVVMTQSPLSLPVTLGEPASISCRSSQSLVHSNGNTYLHWYLQKPGQSPQLLIYKVSNRFSGVPDRFSGSGSGTDFTLKISRVEAEDVGVYFCSQSTLVPLTFGQGTKLEIKRTVAAPSVFIFPPSDEQLKSGTASVVCLLNNFYPREAKVQWKVDNALQSGNSQESVTEQDSKDSTYSLSSTLTLSKADYEKHKVYACEVTHQGLSSPVTKSFNRGEC
heavy: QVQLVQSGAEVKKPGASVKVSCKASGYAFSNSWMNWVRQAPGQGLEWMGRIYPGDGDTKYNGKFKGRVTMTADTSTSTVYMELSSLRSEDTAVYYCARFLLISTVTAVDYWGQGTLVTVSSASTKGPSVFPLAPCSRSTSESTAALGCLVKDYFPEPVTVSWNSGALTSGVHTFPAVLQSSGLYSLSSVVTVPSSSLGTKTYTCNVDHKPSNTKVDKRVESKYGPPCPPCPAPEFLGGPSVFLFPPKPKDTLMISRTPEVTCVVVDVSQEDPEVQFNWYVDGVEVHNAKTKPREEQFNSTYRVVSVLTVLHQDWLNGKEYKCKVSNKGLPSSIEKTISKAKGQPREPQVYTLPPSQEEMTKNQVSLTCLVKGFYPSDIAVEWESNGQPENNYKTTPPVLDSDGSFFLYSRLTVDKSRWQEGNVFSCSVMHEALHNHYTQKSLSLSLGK
notes: IgG4 with the Ser228Pro mutation; also called antibody Q; anti-C5aR ab
B1: the Kd (commonly the constant that tells how readily two partners part at equilibrium) in experiment [1] is 0.175 µg/mL. The binding result in experiment [2] is recorded as “binds”. Further, a half-maximal effect in experiment [3] (EC50) was put at 1.1 µg/mL.

The values above are taken from patent US20110190477A1 (G2 INFLAMMATION, published 2011).
